Broadly, the Kd is a measure of binding affinity in units of concentration. A low value points to higher affinity.

Sequences and labels used below:
B1: 9SDNsYTEE15, sTyr12 sulfopeptide of CXCR4 (peptide)
peptide: SDNYTEE
HELM: PEPTIDE1{[ac].S.D.N.[O=C([C@H](Cc1ccc(OS(=O)(=O)O)cc1)N[*:1])[*:2]].T.E.E.[am]}$$$$V2.0
SMILES: CC(=O)N[C@@H](CO)C(=O)N[C@@H](CC(=O)O)C(=O)N[C@@H](CC(N)=O)C(=O)N[C@@H](Cc1ccc(OS(=O)(=O)O)cc1)C(=O)N[C@H](C(=O)N[C@@H](CCC(=O)O)C(=O)N[C@@H](CCC(=O)O)C(N)=O)[C@@H](C)O
B2: 4ISIsYTSD10, sTyr7 sulfopeptide of CXCR4 (peptide)
peptide: ISIYTSD
HELM: PEPTIDE1{[ac].I.S.I.[O=C([C@H](Cc1ccc(OS(=O)(=O)O)cc1)N[*:1])[*:2]].T.S.D.[am]}$$$$V2.0
SMILES: CC[C@H](C)[C@H](NC(C)=O)C(=O)N[C@@H](CO)C(=O)N[C@H](C(=O)N[C@@H](Cc1ccc(OS(=O)(=O)O)cc1)C(=O)N[C@H](C(=O)N[C@@H](CO)C(=O)N[C@@H](CC(=O)O)C(N)=O)[C@@H](C)O)[C@@H](C)CC
B3: 18SGDsYDSM24, sTyr21 sulfopeptide of CXCR4 (peptide)
peptide: SGDYDSM
HELM: PEPTIDE1{[ac].S.G.D.[O=C([C@H](Cc1ccc(OS(=O)(=O)O)cc1)N[*:1])[*:2]].D.S.M.[am]}$$$$V2.0
SMILES: CSCC[C@H](NC(=O)[C@H](CO)NC(=O)[C@H](CC(=O)O)NC(=O)[C@H](Cc1ccc(OS(=O)(=O)O)cc1)NC(=O)[C@H](CC(=O)O)NC(=O)CNC(=O)[C@H](CO)NC(C)=O)C(N)=O

This assay concerns the target CXCL12_(2), constitutively dimeric CXCL12 variant (locked dimer) (UniProt P48061). Put plainly: NMR titration.
With B1, the Kd was 266 µM.
The result for Ac-SDNYTEE-NH2 [9SDNYTEE15, unsulfated Tyr12 peptide of CXCR4] reads 332 µM; that for B2, 386 µM.
B3: the Kd is 211 µM.
Molecule Ac-SGDYDSM-NH2 [18SGDYDSM24, unsulfated Tyr21 peptide of CXCR4] registered a Kd of 831 µM.
Regarding Ac-ISIYTSD-NH2 [4ISIYTSD10, unsulfated Tyr7 peptide of CXCR4], the Kd was 418 µM.

The record behind these values is PMC3783652.
